Assay [1] has as its target T1, IL-36 receptor (heterodimer of IL-36R and IL-1RAcP) on human cells (human, UniProt Q9HB29 20-575; Q9NPH3 21-570).
T1 sequence (looked up) 1: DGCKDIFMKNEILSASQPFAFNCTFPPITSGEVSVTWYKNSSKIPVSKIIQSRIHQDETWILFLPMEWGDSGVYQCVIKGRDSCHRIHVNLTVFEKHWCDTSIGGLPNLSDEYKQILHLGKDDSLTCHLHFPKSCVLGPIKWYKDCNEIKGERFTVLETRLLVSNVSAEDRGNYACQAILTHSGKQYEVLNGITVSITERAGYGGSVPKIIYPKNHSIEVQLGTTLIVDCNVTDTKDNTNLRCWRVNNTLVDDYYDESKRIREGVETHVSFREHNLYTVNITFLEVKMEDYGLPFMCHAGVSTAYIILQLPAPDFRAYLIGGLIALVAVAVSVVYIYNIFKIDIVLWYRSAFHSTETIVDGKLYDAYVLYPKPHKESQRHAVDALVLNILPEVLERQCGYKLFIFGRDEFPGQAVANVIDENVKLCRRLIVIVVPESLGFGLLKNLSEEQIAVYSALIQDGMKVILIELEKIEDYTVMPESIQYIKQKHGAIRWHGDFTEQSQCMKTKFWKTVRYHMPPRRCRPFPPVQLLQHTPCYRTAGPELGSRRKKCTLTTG
T1 sequence (looked up) 2: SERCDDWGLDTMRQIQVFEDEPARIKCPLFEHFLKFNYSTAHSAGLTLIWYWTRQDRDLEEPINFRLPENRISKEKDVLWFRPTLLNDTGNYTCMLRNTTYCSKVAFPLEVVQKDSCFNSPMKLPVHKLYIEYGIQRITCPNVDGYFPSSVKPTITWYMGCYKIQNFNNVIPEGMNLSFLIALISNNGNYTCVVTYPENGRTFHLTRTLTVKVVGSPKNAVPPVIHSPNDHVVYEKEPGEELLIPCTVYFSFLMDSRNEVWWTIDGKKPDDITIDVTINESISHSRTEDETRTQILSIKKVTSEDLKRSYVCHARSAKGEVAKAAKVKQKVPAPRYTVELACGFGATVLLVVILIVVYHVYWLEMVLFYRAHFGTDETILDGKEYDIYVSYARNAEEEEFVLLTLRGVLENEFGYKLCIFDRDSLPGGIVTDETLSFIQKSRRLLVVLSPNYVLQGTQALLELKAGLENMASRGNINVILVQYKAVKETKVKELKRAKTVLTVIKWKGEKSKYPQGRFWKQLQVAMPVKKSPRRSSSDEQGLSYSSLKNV
Kind of assay: cell-based or functional assay.

The target in assay [2] is T1, IL-36 receptor (heterodimer of IL-36R …). Kind of assay: cell-based or functional assay. This is another data set of the same source.
For assay [3] the target is unchanged. The assay is described as follows: cell-based or functional assay. The source holds these as a separate data set.
For assay [4] the target is unchanged. The assay is described as follows: cell-based or functional assay. The source holds these as a separate data set.
The target of assay [5] is T2, human IL-36γ, truncated (human, UniProt Q9NZH8 18-169).
T2 sequence: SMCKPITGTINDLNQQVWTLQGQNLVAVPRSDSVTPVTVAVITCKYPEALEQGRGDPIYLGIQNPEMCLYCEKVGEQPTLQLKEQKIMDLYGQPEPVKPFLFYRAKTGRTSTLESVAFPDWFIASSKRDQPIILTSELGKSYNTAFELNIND
The assay is described as follows: cell-based or functional assay.

For assay [6], the target named is T3, human IL-36α (R&D Systems cat#6995-IL-010/CF) (human, UniProt Q9UHA7 6-158).
T3 sequence (looked up): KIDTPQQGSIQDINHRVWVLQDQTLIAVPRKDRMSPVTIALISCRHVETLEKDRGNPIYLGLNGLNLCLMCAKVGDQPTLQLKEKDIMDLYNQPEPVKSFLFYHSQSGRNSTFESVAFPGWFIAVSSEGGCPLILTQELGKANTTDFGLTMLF
The assay is described as follows: cell-based or functional assay.

For assay [7], the target named is T4, human IL-36α(R12), truncated (human, UniProt Q9UHA7 6-158).
T4 construct: Untagged after removal of the His-SUMO tag; also called hIL-36alpha
T4 chain: T3 sequence (looked up) with Q7R
The assay is described as follows: SPR, Biacore, 1:1 Langmuir fit. On the procedure:
(§1) The humanized antibodies obtained in Example 6 were tested for their binding to recombinant human or cynomolgus macaque IL36a and IL-36γ in Biacore assays. The association time was set to 60 seconds, and the final dissociation time was set to 600 seconds. Equilibrium dissociation constant KD (kd/ka) of exemplary antibodies was determined using a 1:1 Langmuir fit model (see Tables 17-18 below).
In general terms: SPR reads the build-up and loss of mass on a sensor chip optically.

For assay [8], the target named is T5, cynomolgus IL-36γ, truncated (cynomolgus macaque (Macaca fascicularis), UniProt Q9NZH8 18-167 (human entry), limits assumed).
T5 construct: Untagged after removal of the His-SUMO tag; also called cynomolgus IL-36 gamma; cyIL-36gamma
T5 chain: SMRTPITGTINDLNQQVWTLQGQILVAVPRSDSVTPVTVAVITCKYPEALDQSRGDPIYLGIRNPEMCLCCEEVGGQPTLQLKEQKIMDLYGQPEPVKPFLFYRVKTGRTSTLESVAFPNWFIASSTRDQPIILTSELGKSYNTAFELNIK
Kind of assay: SPR, Biacore, 1:1 Langmuir fit. On the procedure:
as §1

Assay [9] deals with T2, human IL-36γ, truncated. Kind of assay: SPR, Biacore, 1:1 Langmuir fit. The procedure: as §1
Assay [10] concerns the target T6, cynomolgus IL-36α, truncated (cynomolgus macaque (Macaca fascicularis), UniProt Q9UHA7 14-158 (human entry), limits assumed).
T6 construct: Untagged after removal of the His-SUMO tag; also called cynomolgus IL-36 alpha; cyIL-36alpha
T6 chain: T3 sequence (looked up) with I2S, D3E, T4M, Q7P, G8V, T24I, M34V, A40S, V74A
Kind of assay: SPR, Biacore, 1:1 Langmuir fit. On the procedure: as §1

The target of assay [11] is T4, human IL-36α(R12), truncated. The assay is described as follows: SPR, Biacore, 1:1 Langmuir fit; heads of c3 and c4 printed swapped. The procedure: as §1
Assay [12] deals with T5, cynomolgus IL-36γ, truncated. The description is as above. On the procedure: as §1
Assay [13] deals with T2, human IL-36γ, truncated. The assay is described as above. On the procedure: as §1
Assay [14] deals with T6, cynomolgus IL-36α, truncated. The assay is described as above. On the procedure:
as §1

Changes are numbered by the printed parent chain.

B1: human IL-36Ra, truncated (ligand)
chain: VLSGALCFRMKDSALKVLYLHNNQLLAGGLHAGKVIKGEEISVVPNRWLDASLSPVILGVQGGSQCLSCGVGQEPTLTLEPVNIMELYLGAKESKSFTFYRRDMGLTSSFESAAYPGWFLCTVPEADQPVRLTQLPENGGWNAPITDFYFQQCD
For B1, in [1], the “IC50 of IL-8 secretion, HaCaT, 10 nM cynomolgus IL-36γ, FIG. 2C” value was 174 nM; the “IC50 of IL-8 secretion, HaCaT, 10 nM cynomolgus IL-36γ, FIG. 2D” value was determined as 235 nM; the “IC50 of IL-8 secretion, HaCaT, 10 nM human IL-36γ, FIG. 1D” value is 45.1 nM; the “IC50 of IL-8 secretion, HaCaT, 10 nM human IL-36γ, FIG. 1E” value turned out to be 86.5 nM. Further, the “IC50 of IL-8 secretion, HaCaT, 10 nM human IL-36γ, FIG. 1F” value in assay [1] was found to be 129 nM. In addition, in [2], the “IC50 of IL-8 secretion, primary human keratinocytes, 6.25 nM human IL-36α, FIG. 4A” value is 11.2 nM; the “IC50 of IL-8 secretion, primary human keratinocytes, 8 nM human IL-36α, FIG. 4B” value was 34.6 nM; the “IC50 of IL-8 secretion, primary human keratinocytes, 8.4 nM human IL-36γ, FIG. 4C” value was determined as 109 nM; the “IC50 of IL-8 secretion, primary human keratinocytes, 8.4 nM human IL-36γ, FIG. 4D” value amounted to 47.9 nM. Moreover, in [3], the “IC50 of IL-8 secretion, primary human monocytes, 6 nM human IL-36γ, FIG. 5C” value worked out at 38 nM; the “IC50 of IL-8 secretion, primary human monocytes, 20 nM human IL-36α, FIG. 5A” value is 46.5 nM; the “IC50 of IL-8 secretion, primary human monocytes, 40 nM human IL-36α, FIG. 5B” value turned out to be 69.1 nM; the “IC50 of IL-8 secretion, primary human monocytes, 50 nM human IL-36γ, FIG. 5D” value was 76.3 nM. Moreover, in [4], the “IC50 of IL-8 secretion, HaCaT, 10 nM cynomolgus IL-36α, FIG. 2A” value was found to be 21.8 nM; the “IC50 of IL-8 secretion, HaCaT, 10 nM cynomolgus IL-36α, FIG. 2B” value worked out at 20.8 nM; the “IC50 of IL-8 secretion, HaCaT, 10 nM human IL-36α, FIG. 1A” value was determined as 39.9 nM; the “IC50 of IL-8 secretion, HaCaT, 10 nM human IL-36α, FIG. 1B” value came to 46.6 nM. The “IC50 of IL-8 secretion, HaCaT, 10 nM human IL-36α, FIG. 1C” value in assay [4] was determined as 90.6 nM.

B2: 144L249B LV9 HV11 (antibody, V domains shown)
VH: QVQLVQSGAEVKKPGASVKVSCKASGFNIKDTYIYWVRQAPGQGLEWIGRIDPAIGTTRYDPKFQGKATLTTDTSTNTAYLELSSLRSEDTAVYYCARYDYSGSSFYFDYWGQGTLVTVSS
VL: QAVVTQEPSLTVSPGGTVTLTCRSSTGAVTTSNYANWVQEKPGQLFTGLIGGTNDRAPGVPARFSGSLLGGKAALTLSGAQPEDEADYFCALWYSNHLVFGGGTKLTVL
notes: Humanized
As a reminder, the Kd is a measure of binding affinity in units of concentration. A high value points to a looser complex. The koff is the first-order rate constant of dissociation. A low value points to a long-lived complex. Broadly, the kon is the second-order rate constant of association. Read a high kon as fast association. Consider B2, for which the “IC50 of IL-8 secretion (AlphaLISA), HaCaT, 10 nM human IL-36γ” value with human IL-36γ, truncated [5] is 16.5 nM. The “IC50 of IL-8 secretion (AlphaLISA), HaCaT, 10 nM human IL-36α” value in assay [6] is 7.68 nM. The Kd in [7] is 1.29 nM; in assay [8] it was 0.913 nM; with human IL-36γ, truncated [9], 0.795 nM; in [10], 0.927 nM. The koff in assay [11] is 0.00102 s⁻¹; in assay [12], 0.000866 s⁻¹; with human IL-36γ, truncated [13], 0.000706 s⁻¹; in [14] it was 0.00135 s⁻¹. The kon in assay [11] was 791000 M⁻¹ s⁻¹; in [12], 948000 M⁻¹ s⁻¹; in the assay with human IL-36γ, truncated [13], 888000 M⁻¹ s⁻¹; in assay [14], 1.46e+06 M⁻¹ s⁻¹.

B3: 144L249B LV7a HV11 (antibody, V domains shown)
VH: B2 VH
VL: B2 VL with E40Q, L45A, L77I
notes: Humanized
Regarding B3, the “IC50 of IL-8 secretion (AlphaLISA), HaCaT, 10 nM human IL-36γ” value in the assay with human IL-36γ, truncated [5] turned out to be 25.8 nM. In addition, the “IC50 of IL-8 secretion (AlphaLISA), HaCaT, 10 nM human IL-36α” value in assay [6] was determined as 9.2 nM. The Kd was 1.37 nM in assay [7]; 0.91 nM in assay [8]; 0.789 nM with human IL-36γ, truncated [9]; 1 nM in assay [10]. Moreover, the koff in assay [11] came out at 0.00103 s⁻¹; in assay [12], 0.000831 s⁻¹; in the assay with human IL-36γ, truncated [13], 0.000678 s⁻¹; in assay [14] it was 0.0014 s⁻¹. Also, the kon in assay [11] came to 749000 M⁻¹ s⁻¹; in assay [12], 913000 M⁻¹ s⁻¹; in the assay with human IL-36γ, truncated [13], 859000 M⁻¹ s⁻¹; in assay [14], 1.4e+06 M⁻¹ s⁻¹.

B4: 144L249B LV9 HV10b (antibody, V domains shown)
VH: B2 VH with N77S
VL: B2 VL
notes: Humanized
For the molecule B4, the “IC50 of IL-8 secretion (AlphaLISA), HaCaT, 10 nM human IL-36γ” value with human IL-36γ, truncated [5] came to 20.7 nM. Moreover, the “IC50 of IL-8 secretion (AlphaLISA), HaCaT, 10 nM human IL-36α” value in [6] worked out at 6.61 nM. The Kd in assay [7] was determined as 1.39 nM; in [8], 1.13 nM; in the assay with human IL-36γ, truncated [9], 0.942 nM; in assay [10], 0.944 nM. Also, the koff in assay [11] amounted to 0.000989 s⁻¹; in assay [12], 0.000969 s⁻¹; with human IL-36γ, truncated [13], 0.000728 s⁻¹; in [14], 0.00126 s⁻¹. Also, the kon in assay [11] is 714000 M⁻¹ s⁻¹; in assay [12], 855000 M⁻¹ s⁻¹; with human IL-36γ, truncated [13] it was 772000 M⁻¹ s⁻¹; in assay [14], 1.34e+06 M⁻¹ s⁻¹.

B5: 144L249B LV9 HV10c (antibody, V domains shown)
VH: B2 VH with T72A
VL: B2 VL
notes: Humanized
In the case of B5, the “IC50 of IL-8 secretion (AlphaLISA), HaCaT, 10 nM human IL-36γ” value in the assay with human IL-36γ, truncated [5] was found to be 11.5 nM. For the same molecule, the “IC50 of IL-8 secretion (AlphaLISA), HaCaT, 10 nM human IL-36α” value in assay [6] is 5.13 nM. In addition, the Kd is 0.992 nM in assay [7]; 0.552 nM in assay [8]; 0.625 nM with human IL-36γ, truncated [9]; 0.674 nM in [10]. The koff in assay [11] stood at 0.000843 s⁻¹; in [12] it was 0.000603 s⁻¹; with human IL-36γ, truncated [13], 0.000625 s⁻¹; in assay [14], 0.00103 s⁻¹. Further, the kon in assay [11] amounted to 850000 M⁻¹ s⁻¹; in [12], 1.09e+06 M⁻¹ s⁻¹; with human IL-36γ, truncated [13], 999000 M⁻¹ s⁻¹; in [14], 1.53e+06 M⁻¹ s⁻¹.
